{"source": "patent US20120093810A1", "about": "(EVEC, published 2012)", "binders": {"B1": {"name": "anti-AD1 antibody EV2038 (antibody, human IgG1, lambda, V domains shown)", "VH": "QVQLQQWGAGLLKPSETLSLTCAVYGGSFSGYYWGWIRQPPGKGLEWIGEINHSGSANSNPSLKSRVTMSVDTSKNQFSLKVSSVTAADTAVYFCARVTRDLEWIPGDYYMDVWGKGTTVTVSS", "VL": "QSVLTQPPSASGTPGQRVSISCSGSLSNIGTNYVYWYQQLPGTAPKLLIFKNNQRPSGVPDRFSGSKSGTSASLAISGLRSEDEADYYCAAWDDSLNGYVFGTGTKVTVLG", "notes": "complete human IgG1λ; also called EV2038 (original); anti-HCMV antibody (EV2038)"}, "B2": {"name": "EV2038 CDR-H3 deletion variant E122del (antibody, V domains shown)", "VH": "QVQLQQWGAGLLKPSETLSLTCAVYGGSFSGYYWGWIRQPPGKGLEWIGEINHSGSANSNPSLKSRVTMSVDTSKNQFSLKVSSVTAADTAVYFCARVTRDLWIPGDYYMDVWGKGTTVTVSS", "VL": "B1 VL", "notes": "original EV2038 L-chain"}, "B3": {"name": "EV2038 CDR-H3 insertion variant G126_D127insE (antibody, V domains shown)", "VH": "QVQLQQWGAGLLKPSETLSLTCAVYGGSFSGYYWGWIRQPPGKGLEWIGEINHSGSANSNPSLKSRVTMSVDTSKNQFSLKVSSVTAADTAVYFCARVTRDLEWIPGEDYYMDVWGKGTTVTVSS", "VL": "B1 VL", "notes": "original EV2038 L-chain"}, "B4": {"name": "EV2038 CDR-H3 variant V132K (antibody, V domains shown)", "VH": "B1 VH with V113K", "VL": "B1 VL"}, "B5": {"name": "EV2038 CDR-H3 variant I124V (antibody, V domains shown)", "VH": "B1 VH with I105V", "VL": "B1 VL"}, "B6": {"name": "EV2038 CDR-H3 variant I124D (antibody, V domains shown)", "VH": "B1 VH with I105D", "VL": "B1 VL", "notes": "original EV2038 L-chain"}}, "key": {"[1]": {"target": "T1, glycoprotein gB of human cytomegalovirus (HCMV) AD169 strain (human cytomegalovirus, AD169 strain, UniProt P06473 32-906)", "T1 sequence (P06473 32-906 limits assumed)": "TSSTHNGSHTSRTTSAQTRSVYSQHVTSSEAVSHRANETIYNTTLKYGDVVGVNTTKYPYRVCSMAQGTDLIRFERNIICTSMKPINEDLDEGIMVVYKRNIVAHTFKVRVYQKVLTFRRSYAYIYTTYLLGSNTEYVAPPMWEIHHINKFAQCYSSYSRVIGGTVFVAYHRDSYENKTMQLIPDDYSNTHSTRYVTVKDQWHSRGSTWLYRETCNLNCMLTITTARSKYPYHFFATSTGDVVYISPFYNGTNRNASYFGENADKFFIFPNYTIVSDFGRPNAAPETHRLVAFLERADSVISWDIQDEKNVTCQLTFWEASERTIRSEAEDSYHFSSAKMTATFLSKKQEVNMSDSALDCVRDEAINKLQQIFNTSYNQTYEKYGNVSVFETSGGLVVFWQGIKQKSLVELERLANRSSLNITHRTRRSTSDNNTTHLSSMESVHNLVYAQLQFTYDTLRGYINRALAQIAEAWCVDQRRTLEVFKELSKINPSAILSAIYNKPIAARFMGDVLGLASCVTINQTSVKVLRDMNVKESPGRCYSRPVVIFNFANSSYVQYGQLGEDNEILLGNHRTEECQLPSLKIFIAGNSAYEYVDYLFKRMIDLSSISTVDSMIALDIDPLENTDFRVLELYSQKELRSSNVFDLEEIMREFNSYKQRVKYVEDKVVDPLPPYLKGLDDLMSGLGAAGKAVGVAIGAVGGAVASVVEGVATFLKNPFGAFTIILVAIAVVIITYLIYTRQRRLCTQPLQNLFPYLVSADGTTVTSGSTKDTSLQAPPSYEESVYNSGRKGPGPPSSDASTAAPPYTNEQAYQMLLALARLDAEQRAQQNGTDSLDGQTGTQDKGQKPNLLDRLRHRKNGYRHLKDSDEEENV", "assay": "cell-based or functional assay"}, "[2]": {"target": "T1, glycoprotein gB of human …", "assay": "cell-based or functional assay", "remark": "listed apart in the source"}, "[3]": {"target": "glycoprotein gB of HCMV laboratory strain Towne (human cytomegalovirus, Towne strain, UniProt P13201 23-907)", "sequence (P13201 23-907 limits assumed)": "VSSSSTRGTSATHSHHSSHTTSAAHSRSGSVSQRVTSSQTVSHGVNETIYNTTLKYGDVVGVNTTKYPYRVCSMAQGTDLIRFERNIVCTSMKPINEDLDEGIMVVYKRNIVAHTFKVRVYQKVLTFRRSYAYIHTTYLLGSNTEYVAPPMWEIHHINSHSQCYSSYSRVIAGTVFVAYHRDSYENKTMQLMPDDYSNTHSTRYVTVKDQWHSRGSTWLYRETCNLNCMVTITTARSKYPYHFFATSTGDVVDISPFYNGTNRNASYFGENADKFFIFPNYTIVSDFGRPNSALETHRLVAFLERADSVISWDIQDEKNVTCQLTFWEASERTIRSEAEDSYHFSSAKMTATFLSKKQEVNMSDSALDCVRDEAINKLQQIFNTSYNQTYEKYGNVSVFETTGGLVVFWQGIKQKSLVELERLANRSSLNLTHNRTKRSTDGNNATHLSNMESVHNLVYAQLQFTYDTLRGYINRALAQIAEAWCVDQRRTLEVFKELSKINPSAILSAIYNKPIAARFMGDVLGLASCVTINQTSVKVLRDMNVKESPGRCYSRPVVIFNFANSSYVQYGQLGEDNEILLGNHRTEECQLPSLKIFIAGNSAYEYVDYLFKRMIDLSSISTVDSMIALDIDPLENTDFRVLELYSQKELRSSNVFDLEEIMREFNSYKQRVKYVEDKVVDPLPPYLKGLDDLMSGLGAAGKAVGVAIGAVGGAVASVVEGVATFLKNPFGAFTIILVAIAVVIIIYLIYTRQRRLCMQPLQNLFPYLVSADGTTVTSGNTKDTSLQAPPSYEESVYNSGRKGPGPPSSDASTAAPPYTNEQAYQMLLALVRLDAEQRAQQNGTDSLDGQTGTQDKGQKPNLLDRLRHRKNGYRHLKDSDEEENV", "assay": "cell-based or functional assay"}, "[4]": {"target": "glycoprotein gB of HCMV laboratory strain Merlin (human cytomegalovirus, Merlin strain, UniProt F5HB53 25-907)", "sequence (F5HB53 25-907 limits assumed)": "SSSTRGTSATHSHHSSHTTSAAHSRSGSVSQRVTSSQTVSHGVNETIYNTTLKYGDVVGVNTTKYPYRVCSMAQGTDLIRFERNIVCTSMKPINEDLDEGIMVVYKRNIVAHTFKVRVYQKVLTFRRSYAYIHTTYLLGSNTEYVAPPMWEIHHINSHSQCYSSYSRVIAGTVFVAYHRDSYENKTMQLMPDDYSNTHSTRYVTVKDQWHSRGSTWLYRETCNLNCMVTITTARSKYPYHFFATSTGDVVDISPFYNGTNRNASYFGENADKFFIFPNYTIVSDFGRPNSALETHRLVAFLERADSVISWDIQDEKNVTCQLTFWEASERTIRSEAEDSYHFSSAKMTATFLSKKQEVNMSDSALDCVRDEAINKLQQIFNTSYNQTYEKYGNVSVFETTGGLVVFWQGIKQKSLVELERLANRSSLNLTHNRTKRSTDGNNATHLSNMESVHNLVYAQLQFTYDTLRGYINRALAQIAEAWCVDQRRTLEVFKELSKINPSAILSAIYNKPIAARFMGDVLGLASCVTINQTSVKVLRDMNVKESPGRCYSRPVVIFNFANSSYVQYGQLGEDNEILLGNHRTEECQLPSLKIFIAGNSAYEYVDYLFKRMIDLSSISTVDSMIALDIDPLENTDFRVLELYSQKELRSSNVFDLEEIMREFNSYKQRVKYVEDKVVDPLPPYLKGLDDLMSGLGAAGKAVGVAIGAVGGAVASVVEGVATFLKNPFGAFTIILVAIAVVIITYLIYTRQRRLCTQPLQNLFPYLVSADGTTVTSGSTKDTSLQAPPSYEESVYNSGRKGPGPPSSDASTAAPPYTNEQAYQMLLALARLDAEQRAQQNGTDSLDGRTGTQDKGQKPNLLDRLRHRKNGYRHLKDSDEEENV", "assay": "cell-based or functional assay"}, "[5]": {"target": "glycoprotein gB of HCMV laboratory strain Davis (human cytomegalovirus, Davis strain)", "assay": "cell-based or functional assay"}, "[6]": {"target": "glycoprotein gB of clinically isolated HCMV strain T-137 (human cytomegalovirus, clinical isolate …)", "assay": "cell-based or functional assay"}, "[7]": {"target": "glycoprotein gB of clinically isolated HCMV strain MDU-1 (human cytomegalovirus, clinical isolate …, UniProt P08195)", "sequence (P08195 102-630)": "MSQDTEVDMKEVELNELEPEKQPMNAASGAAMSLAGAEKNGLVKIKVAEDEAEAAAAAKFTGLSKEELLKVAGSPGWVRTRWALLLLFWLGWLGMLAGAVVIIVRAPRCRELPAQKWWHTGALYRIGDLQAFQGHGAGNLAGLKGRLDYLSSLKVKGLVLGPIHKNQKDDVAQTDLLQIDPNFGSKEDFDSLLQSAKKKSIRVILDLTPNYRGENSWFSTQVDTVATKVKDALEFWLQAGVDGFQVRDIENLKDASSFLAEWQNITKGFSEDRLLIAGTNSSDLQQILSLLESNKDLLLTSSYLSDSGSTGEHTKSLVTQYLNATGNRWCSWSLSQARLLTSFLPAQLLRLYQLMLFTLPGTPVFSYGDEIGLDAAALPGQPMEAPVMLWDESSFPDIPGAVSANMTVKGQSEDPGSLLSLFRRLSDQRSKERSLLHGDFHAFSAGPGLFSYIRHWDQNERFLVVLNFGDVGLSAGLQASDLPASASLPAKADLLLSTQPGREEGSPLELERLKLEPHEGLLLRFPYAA", "assay": "cell-based or functional assay"}, "[8]": {"target": "T2, synthetic gB peptide, Peptide 3 in Table 5 (human cytomegalovirus, AD169 strain, reading uncertain)", "T2 construct": "also called peptide number 3", "T2 peptide": "SCVTINQTSVKV-{cellulose membrane}", "assay": "peptide array (SPOTs), dot blot"}, "[9]": {"target": "T3, synthetic gB peptide, Peptide 7 in Table 5 (human cytomegalovirus, AD169 strain, reading uncertain)", "T3 construct": "12-mer of gB; also called peptide number 7", "T3 peptide": "NVKESPGRCYSR-{cellulose membrane}", "assay": "peptide array (SPOTs), dot blot"}, "[10]": {"target": "T4, synthetic gB peptide, Peptide 8 in Table 5 (human cytomegalovirus, AD169 strain, reading uncertain)", "T4 construct": "12-mer of gB; also called peptide number 8", "T4 peptide": "SPGRCYSRPVVI-{cellulose membrane}", "assay": "peptide array (SPOTs), dot blot"}, "[11]": {"target": "T5, synthetic gB peptide, Peptide 21 in Table 5 (human cytomegalovirus, AD169 strain, reading uncertain)", "T5 construct": "12-mer of gB; also called peptide number 21", "T5 peptide": "GNSAYEYVDYLF-{cellulose membrane}", "assay": "peptide array (SPOTs), dot blot"}, "[12]": {"target": "T6, synthetic gB peptide, Peptide 22 in Table 5 (human cytomegalovirus, AD169 strain, reading uncertain)", "T6 construct": "12-mer of gB; also called peptide number 22", "T6 peptide": "YEYVDYLFKRMI-{cellulose membrane}", "assay": "peptide array (SPOTs), dot blot"}, "[13]": {"target": "T7, GST-fused HCMV-AD1 (AD1 region of HCMV glycoprotein gB) (human cytomegalovirus, AD169 strain, UniProt F5HB53 485-651)", "T7 construct": "also called solid-phased AD1; AD1 antigen; not shown: glutathione S-transferase (GST) fusion partner", "T7 sequence (F5HB53 485-651)": "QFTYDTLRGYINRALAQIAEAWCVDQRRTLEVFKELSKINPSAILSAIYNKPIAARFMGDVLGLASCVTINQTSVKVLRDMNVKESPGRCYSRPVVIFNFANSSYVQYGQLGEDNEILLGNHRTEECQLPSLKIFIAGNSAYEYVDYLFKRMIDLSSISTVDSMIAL", "assay": "ELISA on solid-phased AD1"}, "[14]": {"target": "T1, glycoprotein gB of human …", "assay": "cell-based or functional assay", "remark": "listed apart in the source"}}, "note": "Numbering of substitutions follows the chain as printed. In names and notes the source's numbering stands. No end group written: not given here. cellulose membrane = not defined here"}
{"binder": "B1", "values": [{"measurement": "IC50 of neutralisation of HCMV AD169 infection of MRC-5 cells (IE1 immunostaining), with complement (Cp+)", "setting": "[1]", "value": 0.58, "unit": "mg/L"}, {"measurement": "IC50 of neutralisation of HCMV AD169 infection of MRC-5 cells (IE1 immunostaining), without complement (Cp-)", "setting": "[1]", "value": 0.57, "unit": "mg/L"}, {"measurement": "IC50 of plaque formation, HCMV AD169, fibroblast cell", "setting": "[2]", "value": 0.027, "unit": "mg/L"}, {"measurement": "IC50 of plaque formation, HCMV AD169, fibroblast cell (mol concentration)", "setting": "[2]", "value": 0.18, "unit": "nM"}, {"measurement": "IC50 of plaque formation, HCMV Towne, fibroblast cell", "setting": "[3]", "value": 0.025, "unit": "mg/L"}, {"measurement": "IC50 of plaque formation, HCMV Towne, fibroblast cell (mol concentration)", "setting": "[3]", "value": 0.17, "unit": "nM"}, {"measurement": "IC50 of plaque formation, HCMV Merlin, fibroblast cell", "setting": "[4]", "value": 0.012, "unit": "mg/L"}, {"measurement": "IC50 of plaque formation, HCMV Merlin, fibroblast cell (mol concentration)", "setting": "[4]", "value": 0.08, "unit": "nM"}, {"measurement": "IC50 of plaque formation, HCMV Davis, fibroblast cell", "setting": "[5]", "value": 0.037, "unit": "mg/L"}, {"measurement": "IC50 of plaque formation, HCMV Davis, fibroblast cell (mol concentration)", "setting": "[5]", "value": 0.25, "unit": "nM"}, {"measurement": "IC50 of plaque formation, clinical isolate T-137, fibroblast cell", "setting": "[6]", "value": 0.07, "unit": "mg/L"}, {"measurement": "IC50 of plaque formation, clinical isolate T-137, fibroblast cell (mol concentration)", "setting": "[6]", "value": 0.47, "unit": "nM"}, {"measurement": "IC50 of plaque formation, clinical isolate MDU-1, epithelial cell", "setting": "[7]", "value": 0.04, "unit": "mg/L"}, {"measurement": "IC50 of plaque formation, clinical isolate MDU-1, fibroblast cell", "setting": "[7]", "value": 0.044, "unit": "mg/L"}, {"measurement": "IC50 of plaque formation, clinical isolate MDU-1, fibroblast cell (mol concentration)", "setting": "[7]", "value": 0.29, "unit": "nM"}, {"measurement": "binding result", "setting": "[8]", "value": "binds"}, {"measurement": "binding result", "setting": "[9]", "value": "binds"}, {"measurement": "binding result", "setting": "[10]", "value": "binds"}, {"measurement": "binding result", "setting": "[11]", "value": "binds"}, {"measurement": "binding result", "setting": "[12]", "value": "binds"}]}
{"binder": "B2", "values": [{"measurement": "binding result", "setting": "[13]", "value": "no binding"}]}
{"binder": "B3", "values": [{"measurement": "binding result", "setting": "[13]", "value": "no binding"}]}
{"binder": "B4", "values": [{"measurement": "50% inhibition concentration (IC50) of HCMV infection (immunostaining method of Abai et al.)", "setting": "[14]", "value": 1.2, "unit": "mg/L"}]}
{"binder": "B5", "values": [{"measurement": "50% inhibition concentration (IC50) of HCMV infection (immunostaining method of Abai et al.)", "setting": "[14]", "value": 0.45, "unit": "mg/L"}]}
{"binder": "B6", "values": [{"measurement": "binding result", "setting": "[13]", "value": "no binding"}]}
